The test addresses Aca2 (anti-CRISPR associated protein 2) from Pectobacterium carotovorum bacteriophage ZF40 (Pectobacterium carotovorum bacteriophage ZF40). Put plainly: SEC; final size exclusion run of untagged Aca2 on HiPrep 16/60 Sephacryl S-200 in buffer S [50 mM Tris-HCl (pH 7.9), 500 mM KCl, 10% glycerol]; oligomer judged from the elution volume. On the technique in general: In gel filtration, larger molecules generally elute earlier.

For orientation: stoichiometry N means a count of units in the complex or per binding partner. “Aca2 (anti-CRISPR associated protein 2) from Pectobacterium carotovorum bacteriophage ZF40 (natural protein)” returned a stoichiometry N of 2.

For the origin of these results see article PMC8434428.
